Experimental data as given in patent US20220031813A1, “INHIBITOR OF EXTRACELLULAR TRAP FORMATION IN LEUKOCYTES” (priority 2013, published 2022).

Assays:
[1] = test system: human neutrophils; assay: Rate of NETs formation in PMA-stimulated neutrophils after pre-treatment, counted by confocal microscopy; type: cell-based
[2] = test system: human neutrophils; assay: Scanning electron microscopy of neutrophils stimulated to form NETs; type: cell-based; settings: pre-treatment 200 μg/ml, 3 hours after stimulation
Procedure: The observation by a scanning electron microscope was performed as follows. Eosinophil granulocytes were seeded on a glass cover or a glass bottom dish for cell culture in the number of 1×10^6 and pre-treated with 200 μg/ml of human lactoferrin or were not pre-treated before stimulation for NETs. Three hours later, the sample was pre-immobilized with 0.1 M phosphoric acid buffer (pH: 7.4) containing 2% glutaraldehyde at 4° C. for 1 hour. Next, the sample was post-immobilized with 0.1 M phosphoric acid buffer (pH: 7.4) containing 1% osmium tetroxide at 4° C. for 1 hour. After the immobilization, the sample was washed with 60% ethanol, with 70% ethanol, with 80% ethanol and with 95% ethanol while being gently shaken for 5 to 10 minutes, and immersed twice in 100% ethanol for 5 to 10 minutes to be dehydrated. Critical point drying was performed by substitution with isoamyl acetate for 10 to 15 minutes. The sample were covered with a layer of sublimated osmium tetroxide by use of an osmium plasma coating device (OPC80N, Filgen, Inc.) and observed by a scanning electron microscope (JSM-6320F, JEOL, Ltd.). In the case where the neutrophils were not stimulated, the neutrophils were kept spherical and no extracellular fiber was recognized. In the case where the neutrophils were stimulated with PMA, the cells were broken and many fiber components were formed.

[3] = test system: human neutrophils; assay: DNA concentration in the culture supernatant (Picogreen) after pre-treatment; type: cell-based; settings: pre-treatment 2, 20, 200 μg/ml, 3 hours after stimulation; FIG. 1-D
[4] = test system: human neutrophils; assay: DNA concentration in the culture supernatant, lactoferrin added after PMA stimulation; type: cell-based; settings: p<0.001
Procedure: From heathy volunteer, 15 ml to 20 ml of peripheral blood was sampled for one cycle of experiment with an EDTA-containing syringe (needle: 18 to 22 G). After the blood sampling, 3 ml of mono-poly resolving medium (Cat No. DSBN100, DS Pharma Biomedical Co., Ltd.) contained in 15 ml conical tube, and then 3.5 ml of the whole blood were gently stacked in the lower-layer mono-poly resolving medium. The 15 ml conical tube was centrifuged at room temperature (15 to 30° C.) at 400×g for 20 minutes by a swing-type centrifuge, and then the conical tube was taken out gently. A brown plasma layer in the top layer and a lymphocyte/monocyte layer immediately below the brown plasma layer were removed by an aspirator or the like. A transparent layer below the lymphocyte/monocyte layer was removed as much as possible. A pale pink layer below the transparent layer was taken out by a Pasteur pipette. […]
(§1) The culture supernatant was recovered and centrifuged at 200×g for 10 minutes, and the supernatant was transferred to a new microscopic centrifuge tube. The DNA amount was measured by use of Picogreen dsDNA assay reagent (P11496 Invitrogen) in accordance with an accompanying protocol. […]

[5] = test system: human neutrophils; assay: Specificity experiment: inhibition of NETs formation by DNA concentration in the culture supernatant; type: cell-based; settings: n=3, p<0.01, FIG. 10
Procedure: About 1 hour after the isolation of the neutrophils described in “1. Method of isolating human neutrophils” in Example 2, the neutrophils were pre-treated. On an 8-well microslide (Cat. No. ib 80826 Ibidi (registered trademark)), the neutrophils were seeded in 400 μl of culture DMEM+2% human serum Alb (serum human albumin; Product No. A9080 Sigma+4 mM L-glutamine) at a rate of about 1.0×10^5 cells/well, and stimulated with PMA (final concentration: 25 nM, stock: 10 mM in DMSO, Sigma Prod No. P8139). At thirty minutes before the stimulation, and at every one hour or every two hours after the stimulation, 200 μg/ml of human lactoferrin (stock: 100 mg/ml, 200 μl; Cat. No. SIGL6793, SIGMA) was added to perform inhibition [FIG. 2].
as §1, with “protocol. Treatment with human lactoferrin at one hour and two hours after the stimulation was a similar effect to the prior pre-treatment, the DNA concentration in the culture supernatant decreased, resulting in suppression of the release of the DNAs by the NETs [FIG. 2].” for “protocol.”

[6] = bovine proteins; cited from earlier work

Molecule	rate of the NETs formed at plateau, compared with stimulation merely with PMA ([1]; pre-treatment 2 μg/ml for 30 minutes, then PMA 25 nM)	rate of the NETs formed at plateau, compared with stimulation merely with PMA ([1]; pre-treatment 20 μg/ml for 30 minutes, then PMA 25 nM)	formation of the NETs at plateau, compared with stimulation merely with PMA ([1]; pre-treatment 200 μg/ml for 30 minutes, then PMA 25 nM)	release of the DNAs to the outside of the cells (SYTOX green images) ([1]; pre-treatment 200 μg/ml, FIG. 1-C)	inhibitory effect on the formation of the NETs ([1]; pre-treatment with 2, 20 or 200 μg/ml, FIG. 1-A, 1-B)	fiber components of the NETs by scanning electron microscope [2]	DNA concentration in the culture supernatant [3]	DNA concentration in the culture supernatant ([4]; 200 μg/ml added one hour after PMA stimulation)	DNA concentration in the culture supernatant ([4]; 200 μg/ml added two hours after PMA stimulation)	inhibition of the formation of the NETs [5]	Isoelectric point [6]
human lactoferrin: human lactoferrin, Cat No. SIGL6793, SIGMA; called human neutrophil-derived lactoferrin (protein, UniProt P02788 20-710, looked up) Lactotransferrin: GRRRSVQWCAVSQPEATKCFQWQRNMRKVRGPPVSCIKRDSPIQCIQAIAENRADAVTLDGGFIYEAGLAPYKLRPVAAEVYGTERQPRTHYYAVAVVKKGGSFQLNELQGLKSCHTGLRRTAGWNVPIGTLRPFLNWTGPPEPIEAAVARFFSASCVPGADKGQFPNLCRLCAGTGENKCAFSSQEPYFSYSGAFKCLRDGAGDVAFIRESTVFEDLSDEAERDEYELLCPDNTRKPVDKFKDCHLARVPSHAVVARSVNGKEDAIWNLLRQAQEKFGKDKSPKFQLFGSPSGQKDLLFKDSAIGFSRVPPRIDSGLYLGSGYFTAIQNLRKSEEEVAARRARVVWCAVGEQELRKCNQWSGLSEGSVTCSSASTTEDCIALVLKGEADAMSLDGGYVYTAGKCGLVPVLAENYKSQQSSDPDPNCVDRPVEGYLAVAVVRRSDTSLTWNSVKGKKSCHTAVDRTAGWNIPMGLLFNQTGSCKFDEYFSQSCAPGSDPRSNLCALCIGDEQGENKCVPNSNERYYGYTGAFRCLAENAGDVAFVKDVTVLQNTDGNNNEAWAKDLKLADFALLCLDGKRKPVTEARSCHLAMAPNHAVVSRMDKVERLKQVLLHQQAKFGRNGSDCPDKFCLFQSETKNLLFNDNTECLARLHGKTTYEKYLGPQYVAGITNLKKCSTSPLLEACEFLRK	half	half	¼	inhibited	observed similarly to the bovine lactoferrin	form such fiber components in bundles	decreased in a concentration-dependent manner	decreased	decreased	–	–
angiogenin: bovine milk protein, known as a tumor angiogenesis factor, eluted from SP-Sepharose column (protein, UniProt P10152 24-148, looked up) Angiogenin-1: AQDDYRYIHFLTQHYDAKPKGRNDEYCFNMMKNRRLTRPCKDRNTFIHGNKNDIKAICEDRNGQPYRGDLRISKSEFQITICKHKGGSSRPPCRYGATEDSRVIVVGCENGLPVHFDESFITPRH	–	–	–	–	–	–	–	–	–	Neither lactoperoxidase nor angiogenin inhibited	9.5
